The numbers were not newly measured in publication PMC5587394, which cites them from elsewhere.

The series concerns the target FGF20 (Homo sapiens) (UniProt Q9NP95).

FGF20, sequence (Q9NP95 whole entry): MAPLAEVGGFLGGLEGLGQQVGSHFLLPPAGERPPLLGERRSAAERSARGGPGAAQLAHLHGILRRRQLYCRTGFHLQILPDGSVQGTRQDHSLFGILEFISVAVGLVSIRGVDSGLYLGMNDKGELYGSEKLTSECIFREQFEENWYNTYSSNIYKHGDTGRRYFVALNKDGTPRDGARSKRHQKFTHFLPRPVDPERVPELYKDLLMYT

FGF20 (from UniProt Q9NP95): the Kd was 100 nM.

The Kd is a measure of binding affinity in units of concentration.
